Assay in all cases: pull-down
Experiment [1] deals with GST-Rps3, wt (yeast (S. cerevisiae)) (UniProt P05750).
In experiment [2] the target is rps3-R116D fused to GST (yeast (S. cerevisiae)) (UniProt P05750).
The target of experiment [3] is GST-a/tif32-CTD-box32 (yeast (S. cerevisiae)) (UniProt P38249).
Experiment [4] has as its target GST-a/tif32-CTD-box33 (yeast (S. cerevisiae)) (UniProt P38249).

“[35S]-labelled full-length a/Tif32 with box32 (from UniProt P38249 1-964) (natural protein)” had a reduction of binding against wt full-length a/Tif32 in experiment [1] of 50%. In experiment [2], this molecule registered a reduction of binding against GST-Rps3 wt of 35% and a reduction of binding against wt full-length a/Tif32 of 50%.

B1: [35S]-labelled uS3/Rps3, wt (natural protein)
chain: MVALISKKRKLVADGVFYAELNEFFTRELAEEGYSGVEVRVTPTKTEVIIRATRTQDVLGENGRRINELTLLVQKRFKYAPGTIVLYAERVQDRGLSAVAQAESMKFKLLNGLAIRRAAYGVVRYVMESGAKGCEVVVSGKLRAARAKAMKFADGFLIHSGQPVNDFIDTATRHVLMRQGVLGIKVKIMRDPAKSRTGPKALPDAVTIIEPKEEEPILAPSVKDYRPAEETEAQAEPVEA
modifications: [35S]-labelled
As for B1, the reduction of binding against the wt a/Tif32-CTD in experiment [3] and in experiment [4] was 80% in each case.

For the origin of these results see publication PMC6868437.
